From patent US20220298216A1 (SYRACUSE UNIVERSITY, published 2022)
Non-standard residues stand in square brackets, D forms with d. No end group written: not given here. NMeF = CN[C@@H](Cc1ccccc1)C(=O)O; NMeL = CN[C@@H](CC(C)C)C(=O)O; NMeS = CN[C@@H](CO)C(=O)O; Dap = NC[C@H](N)C(=O)O; Sar = CNCC(=O)O

B1: GSDapFL (peptide)
peptide: GS[Dap]FL
B2: GN·MeSDapFL (peptide)
peptide: G[NMeS][Dap]FL
B3: SarSDapN·MeFN·MeL (peptide)
peptide: [Sar]S[Dap][NMeF][NMeL]
B4: GSDapN·MeFL (peptide)
peptide: GS[Dap][NMeF]L
B5: SarSDapFL (peptide)
peptide: [Sar]S[Dap]FL
B6: GSDapFN·MeL (peptide)
peptide: GS[Dap]F[NMeL]

Experiments:
[1] = target: GOAT (human) (UniProt Q96T53); test: GOAT inhibition assay
[2] = target: T1, human ghrelin O-acyltransferase (hGOAT) (human, UniProt Q96T53 1-435, limits assumed); test: cell-based or functional assay
T1 sequence (looked up): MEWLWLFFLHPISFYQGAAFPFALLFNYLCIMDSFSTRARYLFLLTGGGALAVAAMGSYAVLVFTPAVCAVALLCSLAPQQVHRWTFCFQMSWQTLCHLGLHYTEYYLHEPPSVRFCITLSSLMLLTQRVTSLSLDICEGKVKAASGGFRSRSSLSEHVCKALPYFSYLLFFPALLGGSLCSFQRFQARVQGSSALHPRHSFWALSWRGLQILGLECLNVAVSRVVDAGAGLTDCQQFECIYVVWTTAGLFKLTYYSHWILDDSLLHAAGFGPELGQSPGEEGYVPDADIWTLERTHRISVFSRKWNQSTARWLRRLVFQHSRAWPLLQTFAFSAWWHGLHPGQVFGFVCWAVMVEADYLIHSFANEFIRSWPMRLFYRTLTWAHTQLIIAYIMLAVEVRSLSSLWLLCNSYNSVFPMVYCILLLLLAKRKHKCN

[3] = target: ghrelin receptor (GHS-R1a) (Homo sapiens (Human)) (UniProt Q92847); test: competition binding assay on the ghrelin receptor, IC50
ghrelin receptor (GHS-R1a) (Homo sapiens (Human)), sequence (Q92847 whole entry, form in doubt): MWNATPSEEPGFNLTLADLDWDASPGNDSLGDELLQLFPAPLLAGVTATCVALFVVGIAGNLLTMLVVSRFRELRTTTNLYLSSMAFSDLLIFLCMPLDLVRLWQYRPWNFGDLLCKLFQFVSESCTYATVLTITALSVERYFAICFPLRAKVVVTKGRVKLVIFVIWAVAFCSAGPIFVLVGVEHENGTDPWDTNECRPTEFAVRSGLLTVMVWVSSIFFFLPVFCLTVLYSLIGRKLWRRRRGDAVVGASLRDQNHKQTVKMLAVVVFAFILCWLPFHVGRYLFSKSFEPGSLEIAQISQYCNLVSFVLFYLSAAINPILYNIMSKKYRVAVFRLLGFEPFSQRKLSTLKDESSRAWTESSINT

Molecule	IC50 [1]	IC50 (µM), inhibitor potency against hGOAT [2]	further results
GS[Dap]FLS	74 nM	–	–
GSDap	> 100000 nM	–	–
SDapFL	> 100000 nM	–	–
SarSDapN·MeF (peptide)	–	1.5 µM	–
Ac-SDapFL	> 100000 nM	–	–
GSDapF	1200 nM	–	–
ghrelin-derived peptide with a sarcosine substitution at the G1 position	–	–	fold loss in binding affinity (IC50) against the unsubstituted peptide [3]: > 25 fold
B1	–	0.14 µM	–
B2	–	> 100 µM	–
B3	–	6 µM	–
B4	–	0.097 µM	–
B5	–	0.088 µM	–
B6	–	0.062 µM	–
